Laboratory results reported in the MegaScale stability set (Tsuboyama et al. 2023).

B1: EEHEE_rd4_0647 (parent)
chain: MQVTWGNVTVTFSNPEEAKKYAEKVARKLGGQVELHNGQFRIK

Variants of: B1
Assay: folding stability dG (cDNA display proteolysis); higher = more stable
Settings: PBS, room temperature

Variant | folding stability dG [kcal/mol]
MQVTWGNVTVTFSNPEEAKKYTEKVARKLGGQVELHNGQFRIK [A22T] | 0.682
MQVTWGNVTVTFSNPEEAKKYVEKVARKLGGQVELHNGQFRIK [A22V] | 1.43
MQVTWGNVTVTFSNPEEAKKYWEKVARKLGGQVELHNGQFRIK [A22W] | 1.04
MQVTWGNVTVTFSNPEEAKKYYEKVARKLGGQVELHNGQFRIK [A22Y] | 0.931
MQVTWGNVTVTFSNPEEAKKYAAKVARKLGGQVELHNGQFRIK [E23A] | 2.43
MQVTWGNVTVTFSNPEEAKKYACKVARKLGGQVELHNGQFRIK [E23C] | 3.37
MQVTWGNVTVTFSNPEEAKKYADKVARKLGGQVELHNGQFRIK [E23D] | 2.62
MQVTWGNVTVTFSNPEEAKKYAFKVARKLGGQVELHNGQFRIK [E23F] | 2.98
MQVTWGNVTVTFSNPEEAKKYAGKVARKLGGQVELHNGQFRIK [E23G] | 1.86
MQVTWGNVTVTFSNPEEAKKYAHKVARKLGGQVELHNGQFRIK [E23H] | 2.69
MQVTWGNVTVTFSNPEEAKKYAIKVARKLGGQVELHNGQFRIK [E23I] | 2.71
MQVTWGNVTVTFSNPEEAKKYAKKVARKLGGQVELHNGQFRIK [E23K] | 2.29
MQVTWGNVTVTFSNPEEAKKYALKVARKLGGQVELHNGQFRIK [E23L] | 2.7
MQVTWGNVTVTFSNPEEAKKYAMKVARKLGGQVELHNGQFRIK [E23M] | 2.68
MQVTWGNVTVTFSNPEEAKKYANKVARKLGGQVELHNGQFRIK [E23N] | 2.44
MQVTWGNVTVTFSNPEEAKKYAPKVARKLGGQVELHNGQFRIK [E23P] | 0.119
MQVTWGNVTVTFSNPEEAKKYAQKVARKLGGQVELHNGQFRIK [E23Q] | 2.62
MQVTWGNVTVTFSNPEEAKKYARKVARKLGGQVELHNGQFRIK [E23R] | 2.23
MQVTWGNVTVTFSNPEEAKKYASKVARKLGGQVELHNGQFRIK [E23S] | 2.15
MQVTWGNVTVTFSNPEEAKKYATKVARKLGGQVELHNGQFRIK [E23T] | 2.37

Variant | folding stability dG [kcal/mol]
MQVTWGNVTVTFSNPEEAKKYAVKVARKLGGQVELHNGQFRIK [E23V] | 2.42
MQVTWGNVTVTFSNPEEAKKYAWKVARKLGGQVELHNGQFRIK [E23W] | 2.73
MQVTWGNVTVTFSNPEEAKKYAYKVARKLGGQVELHNGQFRIK [E23Y] | 3.15
MQVTWGNVTVTFSNPEEAKKYAEAVARKLGGQVELHNGQFRIK [K24A] | 3.01
MQVTWGNVTVTFSNPEEAKKYAECVARKLGGQVELHNGQFRIK [K24C] | 3.81
MQVTWGNVTVTFSNPEEAKKYAEDVARKLGGQVELHNGQFRIK [K24D] | 2.73
MQVTWGNVTVTFSNPEEAKKYAEEVARKLGGQVELHNGQFRIK [K24E] | 2.83
MQVTWGNVTVTFSNPEEAKKYAEFVARKLGGQVELHNGQFRIK [K24F] | 3.2
MQVTWGNVTVTFSNPEEAKKYAEGVARKLGGQVELHNGQFRIK [K24G] | 2.37
MQVTWGNVTVTFSNPEEAKKYAEHVARKLGGQVELHNGQFRIK [K24H] | 2.89
MQVTWGNVTVTFSNPEEAKKYAEIVARKLGGQVELHNGQFRIK [K24I] | 2.75
MQVTWGNVTVTFSNPEEAKKYAELVARKLGGQVELHNGQFRIK [K24L] | 2.93
MQVTWGNVTVTFSNPEEAKKYAEMVARKLGGQVELHNGQFRIK [K24M] | 3.16
MQVTWGNVTVTFSNPEEAKKYAENVARKLGGQVELHNGQFRIK [K24N] | 2.5
MQVTWGNVTVTFSNPEEAKKYAEPVARKLGGQVELHNGQFRIK [K24P] | -0.146
MQVTWGNVTVTFSNPEEAKKYAEQVARKLGGQVELHNGQFRIK [K24Q] | 2.8
MQVTWGNVTVTFSNPEEAKKYAERVARKLGGQVELHNGQFRIK [K24R] | 2.88
MQVTWGNVTVTFSNPEEAKKYAESVARKLGGQVELHNGQFRIK [K24S] | 2.73
MQVTWGNVTVTFSNPEEAKKYAETVARKLGGQVELHNGQFRIK [K24T] | 2.61
MQVTWGNVTVTFSNPEEAKKYAEVVARKLGGQVELHNGQFRIK [K24V] | 2.59

Variant | folding stability dG [kcal/mol]
MQVTWGNVTVTFSNPEEAKKYAEWVARKLGGQVELHNGQFRIK [K24W] | 3.27
MQVTWGNVTVTFSNPEEAKKYAEYVARKLGGQVELHNGQFRIK [K24Y] | 3.25
MQVTWGNVTVTFSNPEEAKKYAEKAARKLGGQVELHNGQFRIK [V25A] | 1.61
MQVTWGNVTVTFSNPEEAKKYAEKDARKLGGQVELHNGQFRIK [V25D] | 0.13
MQVTWGNVTVTFSNPEEAKKYAEKEARKLGGQVELHNGQFRIK [V25E] | 0.927
MQVTWGNVTVTFSNPEEAKKYAEKFARKLGGQVELHNGQFRIK [V25F] | 1.79
MQVTWGNVTVTFSNPEEAKKYAEKGARKLGGQVELHNGQFRIK [V25G] | 0.217
MQVTWGNVTVTFSNPEEAKKYAEKHARKLGGQVELHNGQFRIK [V25H] | 1.01
MQVTWGNVTVTFSNPEEAKKYAEKIARKLGGQVELHNGQFRIK [V25I] | 3.11
MQVTWGNVTVTFSNPEEAKKYAEKKARKLGGQVELHNGQFRIK [V25K] | 1.68
MQVTWGNVTVTFSNPEEAKKYAEKLARKLGGQVELHNGQFRIK [V25L] | 2.95
MQVTWGNVTVTFSNPEEAKKYAEKMARKLGGQVELHNGQFRIK [V25M] | 2.95
MQVTWGNVTVTFSNPEEAKKYAEKNARKLGGQVELHNGQFRIK [V25N] | 0.417
MQVTWGNVTVTFSNPEEAKKYAEKPARKLGGQVELHNGQFRIK [V25P] | -0.34
MQVTWGNVTVTFSNPEEAKKYAEKQARKLGGQVELHNGQFRIK [V25Q] | 1.87
MQVTWGNVTVTFSNPEEAKKYAEKRARKLGGQVELHNGQFRIK [V25R] | 1.33
MQVTWGNVTVTFSNPEEAKKYAEKSARKLGGQVELHNGQFRIK [V25S] | 0.981
MQVTWGNVTVTFSNPEEAKKYAEKTARKLGGQVELHNGQFRIK [V25T] | 1.93
MQVTWGNVTVTFSNPEEAKKYAEKWARKLGGQVELHNGQFRIK [V25W] | 2.69
